Measured values reported in US20250243278A1.

What was measured:
[1] = target: recombinant human B7H3 extra cellular domain (ECD) protein (human) (UniProt Q5ZPR3); test: Octet binding assay
[2] = target: human B7H3 on A498 cells (human) (UniProt Q5ZPR3); test: flow cytometry, whole cell binding to B7H3+ A498 cells, MFI
[3] = target: human B7H3 on A498 cells (human) (UniProt Q5ZPR3); test: as above; remark: listed apart in the source
[4] = target: human B7H3 on A498 cells (human) (UniProt Q5ZPR3); test: flow cytometry, whole cell binding to B7H3+ A498 cells, MFI (FITC)

Chain of human B7H3 on A498 cells (human) (Q5ZPR3 29-534 limits assumed): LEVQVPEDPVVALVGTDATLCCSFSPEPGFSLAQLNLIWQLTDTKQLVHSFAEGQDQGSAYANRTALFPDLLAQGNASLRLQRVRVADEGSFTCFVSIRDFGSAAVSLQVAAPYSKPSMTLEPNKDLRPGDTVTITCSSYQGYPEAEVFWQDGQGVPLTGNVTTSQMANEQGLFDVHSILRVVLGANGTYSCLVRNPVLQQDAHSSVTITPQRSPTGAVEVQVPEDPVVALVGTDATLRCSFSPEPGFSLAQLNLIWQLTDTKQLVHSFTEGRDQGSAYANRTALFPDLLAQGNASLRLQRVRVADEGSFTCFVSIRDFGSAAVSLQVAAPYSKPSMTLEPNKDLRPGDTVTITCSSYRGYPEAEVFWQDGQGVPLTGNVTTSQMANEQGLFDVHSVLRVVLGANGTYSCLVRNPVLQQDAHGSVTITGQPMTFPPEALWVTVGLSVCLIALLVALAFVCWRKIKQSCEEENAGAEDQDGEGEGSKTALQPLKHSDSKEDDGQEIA
Chain of recombinant human B7H3 extra cellular domain (ECD) protein (human) (Q5ZPR3 29-461): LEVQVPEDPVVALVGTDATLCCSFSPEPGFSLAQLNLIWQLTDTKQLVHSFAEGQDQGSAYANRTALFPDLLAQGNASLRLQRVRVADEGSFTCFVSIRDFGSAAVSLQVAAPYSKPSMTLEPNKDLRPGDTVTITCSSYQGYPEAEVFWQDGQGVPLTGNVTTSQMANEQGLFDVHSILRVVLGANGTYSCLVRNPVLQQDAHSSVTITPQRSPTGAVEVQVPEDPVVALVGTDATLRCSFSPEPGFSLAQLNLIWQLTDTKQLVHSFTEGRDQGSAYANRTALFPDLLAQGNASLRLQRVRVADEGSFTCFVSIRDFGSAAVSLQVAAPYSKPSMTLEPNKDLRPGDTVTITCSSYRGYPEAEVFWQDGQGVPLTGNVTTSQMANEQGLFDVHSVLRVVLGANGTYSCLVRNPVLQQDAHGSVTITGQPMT

Work on “Reference Ab 1 (an enoblituzumab analog) (antibody)” yielded a Kd [1] of 0.739 nM, a koff [1] of 0.000199 s⁻¹ and a kon [1] of 269000 M⁻¹ s⁻¹. It also gave an EC50 [2] of 7.94 nM, an EC50 [3] of 2.18 nM and an EC50 [4] of 0.697 nM.
